Data from the supplement of paper PMC10065799, “High-throughput profiling of sequence recognition by tyrosine kinases and SH2 domains using bacterial peptide display” (eLife, 2023).

Test system: AncSZ
Experiment: phosphorylation enrichment, bacterial display (enrichment ratio); higher = better substrate or ligand; peptides without Tyr show the background
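Note: 11-residue human phosphosite peptides and single-mutation variants displayed on the E. coli surface, counted by deep sequencing, each peptide's frequency after selection divided by its frequency in the unselected input library; frequency after pTyr selection over input frequency; kinase dosed for 20-30% of maximal phosphorylation in three min.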

| Sequence | phosphorylation enrichment |
| --- | --- |
| DDPRRYQKYGY [OAS1_Y362] | 0.598 |
| VAVVQYSGTGQ [COL6A1_Y878] | 0.517 |
| TVINKYQGKLF [HGD_Y249] | 0.514 |
| IEKLPYIDKWF [CPS1_Y872_T871P] | 0.953 |
| NRDNTYNPVSE [FGA_Y127_R129P] | 0.751 |
| QNTGVYYDLYG [PTPN11_Y62_D61V] | 2 |
| VKPENYRRPDI [VHL_Y175_L178P] | 0.566 |
| THEVRYISAGQ [SLCO4A1_Y77_V78I] | 0.683 |
| KLIMEYLPFGS [JAK2_Y931_YF] | 0.868 |
| ASMAKYYASGI [ACADSB_Y372_E376G] | 0.71 |
| NTEGGYRCICA [CRELD1_Y328] | 0.976 |
| GDEEDYEEIPG [EGFR_opt_E_2015] | 1.36 |
| NAPNSYGRRPI [CDKN2A_Y44] | 1.23 |
| EMTAEYACTRK [ACAD9_Y325] | 0.703 |
| VSRGRYRPEEC [B4GALT4_Y113_Q116E] | 0.692 |
| VIGRMYDFHVL [RPF2_Y109_YF] | 0.943 |
| VHNLDYYKMTT [FGFR3_Y647_K650M] | 1.33 |
| SREALYNETDP [CACNA1A_Y794_M797T] | 1.16 |
| LAAAGYDVKKN [H1-3_Y72_E75K] | 0.414 |
| ALEQKYWALGQ [MAP1A_Y1555] | 0.768 |
| TVDASYFGGRG [ANTXR2_Y380_YF] | 0.569 |
| SVVVPHEPPEV [TP53_Y220_Y220H] | 0.763 |
| CETMEYLESKQ [BTK_Y511_A508T] | 1.6 |
| VDEERYDIEAK [TNNI3_Y112] | 1.13 |
| TNGFTYGSSHQ [MANEA_Y331] | 0.566 |
| GADDSYFTVRS [ZAP70_Y492_A495V_YF] | 1.59 |
| GNFSGYDDAWD [POLR1C_Y36_YF] | 1.14 |
| QRKPSYNQLAS [BRCA2_Y71] | 0.449 |
| VTSLKYSTPPF [BRIP1_Y916_S919P_YF] | 0.607 |

Target: EPHB1 (UniProt P54762)
Experiment: as above

Sequence of EPHB1 (P54762 whole entry, looked up): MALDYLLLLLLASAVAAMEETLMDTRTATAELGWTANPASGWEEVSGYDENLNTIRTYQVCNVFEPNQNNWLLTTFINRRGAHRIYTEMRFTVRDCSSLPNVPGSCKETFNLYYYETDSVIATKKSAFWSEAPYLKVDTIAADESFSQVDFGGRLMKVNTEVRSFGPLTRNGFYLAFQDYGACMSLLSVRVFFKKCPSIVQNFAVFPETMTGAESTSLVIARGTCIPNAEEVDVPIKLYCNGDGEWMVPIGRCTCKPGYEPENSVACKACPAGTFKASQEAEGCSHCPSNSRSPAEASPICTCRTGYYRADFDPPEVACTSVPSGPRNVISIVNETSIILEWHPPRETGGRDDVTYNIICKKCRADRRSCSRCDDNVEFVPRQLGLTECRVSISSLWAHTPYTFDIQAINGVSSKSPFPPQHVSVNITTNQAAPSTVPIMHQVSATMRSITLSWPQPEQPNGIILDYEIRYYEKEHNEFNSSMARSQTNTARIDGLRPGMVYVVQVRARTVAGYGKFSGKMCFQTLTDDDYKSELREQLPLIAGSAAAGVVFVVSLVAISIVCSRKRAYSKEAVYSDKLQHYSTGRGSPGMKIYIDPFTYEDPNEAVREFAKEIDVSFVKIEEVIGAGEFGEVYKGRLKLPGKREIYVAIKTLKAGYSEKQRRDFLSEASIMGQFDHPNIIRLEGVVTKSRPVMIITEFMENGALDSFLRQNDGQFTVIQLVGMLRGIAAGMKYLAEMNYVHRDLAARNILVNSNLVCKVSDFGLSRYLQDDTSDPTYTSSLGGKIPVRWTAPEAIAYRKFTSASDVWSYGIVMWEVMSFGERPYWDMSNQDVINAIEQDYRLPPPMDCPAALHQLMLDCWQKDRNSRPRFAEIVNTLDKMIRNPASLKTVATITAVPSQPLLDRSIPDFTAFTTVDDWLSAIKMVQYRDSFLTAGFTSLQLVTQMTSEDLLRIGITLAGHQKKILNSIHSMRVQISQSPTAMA

| Sequence | phosphorylation enrichment |
| --- | --- |
| DDPRRYQKYGY [OAS1_Y362] | 0.368 |
| VAVVQYSGTGQ [COL6A1_Y878] | 0.479 |
| TVINKYQGKLF [HGD_Y249] | 0.336 |
| IEKLPYIDKWF [CPS1_Y872_T871P] | 0.472 |
| NRDNTYNPVSE [FGA_Y127_R129P] | 0.544 |
| QNTGVYYDLYG [PTPN11_Y62_D61V] | 6.99 |
| VKPENYRRPDI [VHL_Y175_L178P] | 0.335 |
| THEVRYISAGQ [SLCO4A1_Y77_V78I] | 0.426 |
| KLIMEYLPFGS [JAK2_Y931_YF] | 0.49 |
| ASMAKYYASGI [ACADSB_Y372_E376G] | 0.327 |
| NTEGGYRCICA [CRELD1_Y328] | 0.496 |
| GDEEDYEEIPG [EGFR_opt_E_2015] | 0.893 |
| NAPNSYGRRPI [CDKN2A_Y44] | 0.581 |
| EMTAEYACTRK [ACAD9_Y325] | 0.406 |
| VSRGRYRPEEC [B4GALT4_Y113_Q116E] | 0.443 |
| VIGRMYDFHVL [RPF2_Y109_YF] | 0.556 |
| VHNLDYYKMTT [FGFR3_Y647_K650M] | 1.17 |
| SREALYNETDP [CACNA1A_Y794_M797T] | 0.67 |
| LAAAGYDVKKN [H1-3_Y72_E75K] | 0.355 |
| ALEQKYWALGQ [MAP1A_Y1555] | 0.53 |
| TVDASYFGGRG [ANTXR2_Y380_YF] | 0.333 |
| SVVVPHEPPEV [TP53_Y220_Y220H] | 0.51 |
| CETMEYLESKQ [BTK_Y511_A508T] | 0.737 |
| VDEERYDIEAK [TNNI3_Y112] | 0.516 |
| TNGFTYGSSHQ [MANEA_Y331] | 0.444 |
| GADDSYFTVRS [ZAP70_Y492_A495V_YF] | 0.558 |
| GNFSGYDDAWD [POLR1C_Y36_YF] | 0.574 |
| QRKPSYNQLAS [BRCA2_Y71] | 0.344 |
| VTSLKYSTPPF [BRIP1_Y916_S919P_YF] | 0.342 |

Target: EPHB2 (UniProt P29323)
Experiment: as above

Sequence of EPHB2 (P29323 whole entry, looked up): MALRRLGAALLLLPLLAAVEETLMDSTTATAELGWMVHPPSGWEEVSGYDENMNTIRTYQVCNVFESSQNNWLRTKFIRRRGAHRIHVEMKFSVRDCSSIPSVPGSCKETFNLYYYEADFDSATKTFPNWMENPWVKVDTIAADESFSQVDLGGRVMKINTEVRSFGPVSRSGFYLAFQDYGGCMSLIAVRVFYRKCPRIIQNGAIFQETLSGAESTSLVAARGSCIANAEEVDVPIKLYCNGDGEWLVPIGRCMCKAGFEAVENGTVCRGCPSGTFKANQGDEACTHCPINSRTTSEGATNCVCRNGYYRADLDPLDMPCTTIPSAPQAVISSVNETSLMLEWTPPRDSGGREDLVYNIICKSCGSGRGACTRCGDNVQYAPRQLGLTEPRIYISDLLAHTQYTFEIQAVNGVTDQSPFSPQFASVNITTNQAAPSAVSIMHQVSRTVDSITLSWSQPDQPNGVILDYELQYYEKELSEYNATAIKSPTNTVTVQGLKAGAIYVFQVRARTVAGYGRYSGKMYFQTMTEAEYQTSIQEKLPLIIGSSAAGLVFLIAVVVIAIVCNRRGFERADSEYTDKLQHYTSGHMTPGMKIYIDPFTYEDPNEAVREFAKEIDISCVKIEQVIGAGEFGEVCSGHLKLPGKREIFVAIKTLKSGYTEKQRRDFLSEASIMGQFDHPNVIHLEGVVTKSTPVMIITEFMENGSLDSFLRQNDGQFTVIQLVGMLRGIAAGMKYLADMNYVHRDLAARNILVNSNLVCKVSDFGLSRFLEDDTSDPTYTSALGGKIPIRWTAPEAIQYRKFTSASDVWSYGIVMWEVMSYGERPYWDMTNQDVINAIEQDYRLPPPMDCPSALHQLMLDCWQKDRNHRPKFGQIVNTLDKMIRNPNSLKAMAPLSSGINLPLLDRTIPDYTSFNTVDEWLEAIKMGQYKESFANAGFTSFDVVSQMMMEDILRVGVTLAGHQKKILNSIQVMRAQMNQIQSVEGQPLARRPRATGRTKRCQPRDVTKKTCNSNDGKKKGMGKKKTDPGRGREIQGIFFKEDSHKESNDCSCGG

| Sequence | phosphorylation enrichment |
| --- | --- |
| DDPRRYQKYGY [OAS1_Y362] | 0.544 |
| VAVVQYSGTGQ [COL6A1_Y878] | 0.463 |
| TVINKYQGKLF [HGD_Y249] | 0.436 |
| IEKLPYIDKWF [CPS1_Y872_T871P] | 0.482 |
| NRDNTYNPVSE [FGA_Y127_R129P] | 0.465 |
| QNTGVYYDLYG [PTPN11_Y62_D61V] | 5.61 |
| VKPENYRRPDI [VHL_Y175_L178P] | 0.468 |
| THEVRYISAGQ [SLCO4A1_Y77_V78I] | 0.396 |
| KLIMEYLPFGS [JAK2_Y931_YF] | 0.571 |
| ASMAKYYASGI [ACADSB_Y372_E376G] | 0.556 |
| NTEGGYRCICA [CRELD1_Y328] | 0.644 |
| GDEEDYEEIPG [EGFR_opt_E_2015] | 0.59 |
| NAPNSYGRRPI [CDKN2A_Y44] | 1.21 |
| EMTAEYACTRK [ACAD9_Y325] | 0.492 |
| VSRGRYRPEEC [B4GALT4_Y113_Q116E] | 0.51 |
| VIGRMYDFHVL [RPF2_Y109_YF] | 0.659 |
| VHNLDYYKMTT [FGFR3_Y647_K650M] | 0.895 |
| SREALYNETDP [CACNA1A_Y794_M797T] | 0.642 |
| LAAAGYDVKKN [H1-3_Y72_E75K] | 0.249 |
| ALEQKYWALGQ [MAP1A_Y1555] | 0.492 |
| TVDASYFGGRG [ANTXR2_Y380_YF] | 0.337 |
| SVVVPHEPPEV [TP53_Y220_Y220H] | 0.46 |
| CETMEYLESKQ [BTK_Y511_A508T] | 0.734 |
| VDEERYDIEAK [TNNI3_Y112] | 0.708 |
| TNGFTYGSSHQ [MANEA_Y331] | 0.31 |
| GADDSYFTVRS [ZAP70_Y492_A495V_YF] | 0.498 |
| GNFSGYDDAWD [POLR1C_Y36_YF] | 0.568 |
| QRKPSYNQLAS [BRCA2_Y71] | 0.53 |
| VTSLKYSTPPF [BRIP1_Y916_S919P_YF] | 0.493 |

Target: FGFR1 (UniProt P11362)
Experiment: as above

Sequence of FGFR1 (P11362 whole entry, looked up): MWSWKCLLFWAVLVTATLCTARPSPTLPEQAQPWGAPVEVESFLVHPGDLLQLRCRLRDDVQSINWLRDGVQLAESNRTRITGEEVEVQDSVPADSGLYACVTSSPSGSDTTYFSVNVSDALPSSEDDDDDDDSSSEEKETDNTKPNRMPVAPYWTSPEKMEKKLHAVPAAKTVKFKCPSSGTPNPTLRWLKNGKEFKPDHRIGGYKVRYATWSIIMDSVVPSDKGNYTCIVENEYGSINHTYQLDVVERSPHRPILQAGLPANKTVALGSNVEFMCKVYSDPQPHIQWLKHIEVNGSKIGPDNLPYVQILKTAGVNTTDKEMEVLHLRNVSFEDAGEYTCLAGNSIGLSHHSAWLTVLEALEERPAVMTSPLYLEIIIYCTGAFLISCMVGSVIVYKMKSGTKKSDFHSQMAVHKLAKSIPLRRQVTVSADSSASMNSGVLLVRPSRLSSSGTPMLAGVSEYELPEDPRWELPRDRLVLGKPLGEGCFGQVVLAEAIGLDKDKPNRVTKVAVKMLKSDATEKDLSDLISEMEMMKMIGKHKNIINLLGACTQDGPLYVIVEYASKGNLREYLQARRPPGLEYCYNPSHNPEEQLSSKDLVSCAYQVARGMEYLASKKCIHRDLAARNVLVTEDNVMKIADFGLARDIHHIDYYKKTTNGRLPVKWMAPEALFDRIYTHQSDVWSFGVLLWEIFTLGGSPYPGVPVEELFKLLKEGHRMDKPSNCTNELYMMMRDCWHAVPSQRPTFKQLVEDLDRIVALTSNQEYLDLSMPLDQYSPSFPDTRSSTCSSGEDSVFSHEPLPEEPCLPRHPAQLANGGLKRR

| Sequence | phosphorylation enrichment |
| --- | --- |
| DDPRRYQKYGY [OAS1_Y362] | 0.414 |
| VAVVQYSGTGQ [COL6A1_Y878] | 0.487 |
| TVINKYQGKLF [HGD_Y249] | 0.473 |
| IEKLPYIDKWF [CPS1_Y872_T871P] | 0.51 |
| NRDNTYNPVSE [FGA_Y127_R129P] | 0.457 |
| QNTGVYYDLYG [PTPN11_Y62_D61V] | 16.3 |
| VKPENYRRPDI [VHL_Y175_L178P] | 0.388 |
| THEVRYISAGQ [SLCO4A1_Y77_V78I] | 0.361 |
| KLIMEYLPFGS [JAK2_Y931_YF] | 0.468 |
| ASMAKYYASGI [ACADSB_Y372_E376G] | 0.36 |
| NTEGGYRCICA [CRELD1_Y328] | 0.668 |
| GDEEDYEEIPG [EGFR_opt_E_2015] | 0.62 |
| NAPNSYGRRPI [CDKN2A_Y44] | 0.692 |
| EMTAEYACTRK [ACAD9_Y325] | 0.397 |
| VSRGRYRPEEC [B4GALT4_Y113_Q116E] | 0.439 |
| VIGRMYDFHVL [RPF2_Y109_YF] | 0.472 |
| VHNLDYYKMTT [FGFR3_Y647_K650M] | 12.1 |
| SREALYNETDP [CACNA1A_Y794_M797T] | 0.559 |
| LAAAGYDVKKN [H1-3_Y72_E75K] | 0.383 |
| ALEQKYWALGQ [MAP1A_Y1555] | 0.674 |
| TVDASYFGGRG [ANTXR2_Y380_YF] | 0.372 |
| SVVVPHEPPEV [TP53_Y220_Y220H] | 0.53 |
| CETMEYLESKQ [BTK_Y511_A508T] | 0.688 |
| VDEERYDIEAK [TNNI3_Y112] | 0.555 |
| TNGFTYGSSHQ [MANEA_Y331] | 0.525 |
| GADDSYFTVRS [ZAP70_Y492_A495V_YF] | 3.54 |
| GNFSGYDDAWD [POLR1C_Y36_YF] | 0.428 |
| QRKPSYNQLAS [BRCA2_Y71] | 0.543 |
| VTSLKYSTPPF [BRIP1_Y916_S919P_YF] | 0.491 |
